Measurements as given in article PMC6191539, “NadA3 Structures Reveal Undecad Coiled Coils and LOX1 Binding Regions Competed by Meningococcus B Vaccine-Elicited Human Antibodies” (mBio, 2018).

Molecular target: T1, full-length human LOX-1 fused to yellow fluorescent protein, expressed on CHO-K1 cells (human, UniProt P78380 1-273)
T1 construct: LOX-1 (low-density oxidized lipoprotein lectin-like receptor 1), human, full length, on transfected CHO-K1 cells; pEYFP-N1 usually places the YFP at the C-terminus of the insert (surmise); also called low-density oxidized lipoprotein lectin-like receptor 1; LOX-1-expressing cells; source: CHO-K1 cells, transiently transfected (pEYFP-N1 vector), on live cells
Test: flow cytometry on cells; CHO-K1 cells transiently expressing human LOX-1-YFP mixed with NadA3 protein (200 µg/ml) for 30 min at 37°C; detected with mouse polyclonal anti-NadA3 and APC-conjugated secondary antibody
Conditions: one partner purified

B1: NadA3 24–170 K68A K69A D70A mutant (domain or fragment)
chain: ATNDDDVKKAATVAIAAAYNNGQEINGFKAGETIYDIDEDGTITAAAATAADVEADDFKGLGLKKVVTNLTKTVNENKQNVDAKVKAAESEIEKLTTKLADTDAALADTDAALDATTNALNKLGENITTFAEETKTNIVKIDEKLEA
notes: NadA3, N. meningitidis serogroup B strain 2996, UniProt Q8KH85, residues 24-170 with K68A, K69A and D70A
  percent doubly positive cells (LOX-1 and NadA): 49.8%
